Results: the supplement of paper PMC12636428

The sequences below were run on Saccharomyces cerevisiae (assay: transcriptional activation domain activity (GFP:mCherry ratio, weighted mean of sorted bins, harmonized to initial dataset scale) (arbitrary fluorescence ratio units); higher = stronger transcriptional activation). Settings: beta-estradiol 1 µM; induction time 4 h.
How it was run: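 Activation activity, the read-weighted mean of bin median fluorescence averaged across barcodes, was linearly mapped onto the scale of the initial dataset. It was measured for barcoded protein tiles fused to an estradiol-inducible synthetic transcription factor at URA3 in GFP-reporter yeast diploids. Cultures diluted 1:5 into SC with 1 uM beta-estradiol were held 4 hours at 30 °C, sorted into 8 bins by GFP:mCherry ratio, and barcode-sequenced, and tiles under 50 reads were discarded.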
With “WYHYLPLCGTIFLILLPQPSWLWILVDFHLQTLHRPGLFIIHLLVSYTLIFMI” the “transcriptional activation domain activity” value was 38500.
“WYTTISSTGLLSLLLYSLPFQPARLWVLGGILYIFSLVSFCALLLVHLVRFLV” was tested, and the “transcriptional activation domain activity” value was 47500.
With “WYWLATTMYFLYGESVIYYFKHVVLVDKVLLPLATHHRFISFMLYIIGFVFFV” the “transcriptional activation domain activity” value was 60400.
“YAASSASPAPPRKYPPARKASPSPSPTPPRTRKSSASALRRPASTPTPPAPSP” was tested, and the “transcriptional activation domain activity” value was 23200.
“YADMLMRIWSVWEFALWQYVSNEEFMGLLGFSRLRFRRMYLLVNNGCLFWRIF” was tested, and the “transcriptional activation domain activity” value was 72400.
For “YADWLLEPEQNNGTWVADVLWPAINLDLQWISSHWNQSSWDLWWPPVWGGSYW”, the “transcriptional activation domain activity” value was 67800.
“YADWLLEPEQNNGTWVSDVLWPAINLDLQWISLHWNESSWDLWWPPVWGGSYW” was tested, and the “transcriptional activation domain activity” value was 52100.
“YAEWLIEPEQNNGTWVADVLWPAINLDLQWISLHWNQSSWDLWWPPVWGGSYW” was tested, and the “transcriptional activation domain activity” value was 53200.
For “YAEWLLQPEQHNGTWVADVLWPAINLDLQWISQHWNESSWDLWWSPVWAGSYW”, the “transcriptional activation domain activity” value was 66400.
For “YAILYFLFFGAWGLRIMSHLPSWWYNCPQFWIDYPHWQMTPELKCYYLMQASY”, the “transcriptional activation domain activity” value was 73600.
In the case of “YALEWNGLVVRSFAYHTVFGIAKVGFFLYHFLFSSFVFSLLLSLVIFFFFFFF”, the “transcriptional activation domain activity” value is reported as 32600.
“YALIHFFRLYRSGHGPIRMFFLHIQALYNLFNLVFSWFALANLWLAFSIIIRL” was tested, and the “transcriptional activation domain activity” value was 75800.
For “YASVLSLIMFFPLPFLSGEILDISRNCYILDVFFHWLMVVCGGLGSWAVFWST”, the “transcriptional activation domain activity” value was 78700.
For “YAVPNDFVVTGGLLLLRYDRLNELPLGTRANSSVLVCVYRTWIALMRYLLAGP”, the “transcriptional activation domain activity” value was 62800.
In the case of “YCAINCGGIDGLSLFMKIQWIANLDYLDIELLFGGIYYYFVCLLLVLLLLLWL”, the “transcriptional activation domain activity” value is reported as 42700.
In the case of “YCDAKPGHSLVFAGHAGELELYLDKSCDADSIMTRENLGSLNRFVRLLLLLAK”, the “transcriptional activation domain activity” value is reported as 38300.
With “YCGDDMHSLRIVVAVLALLTTLKSIHAFAIVWVQSIVHFGDLQGAILLNYTAW” the “transcriptional activation domain activity” value was 76900.
With “YCGSLGCMILVAGIKLLRLLKHHLTVQRALRSNIGKIKAGMLKVKIIMIVGCV” the “transcriptional activation domain activity” value was 66400.
In the case of “YCLLYWVWWFLAFSCWVFCLIYIFAIHCLIWVLVWLSVCFLLMGGYLFFCKED”, the “transcriptional activation domain activity” value is reported as 30600.
With “YDGGRLIVAIPFVCKVLEQAGRSTVFKPPNPWLMAVVRVLVELYKFAELKLNL” the “transcriptional activation domain activity” value was 53800.
For “YDILKCVLPCIVQLLPRNSPLVHCIRAYQCYRIMIGLQCMTERRLKHLQELIK”, the “transcriptional activation domain activity” value was 44800.
With “YDIVCQWWRNLVDRLKELPPLVRISLILELCQFVIPKMHIHSHTLLCQLLFSL” the “transcriptional activation domain activity” value was 59100.
“YDKKTNVLGFDDGTFDNKVFNRTNFEEKAPFDIPLDEFFTELEKHSNVSQFNT” was tested, and the “transcriptional activation domain activity” value was 112000.
“YDLLSVKDLHIQDRLLSARIVLSDISFLKRILMLLGVPDGLSSRLVSHLWCAV” was tested, and the “transcriptional activation domain activity” value was 58400.
For “YDTPSLQMMTIHKSFFGIVNDDTFHWKGLSKLSLDSVPGCRLLSILLLCSATL”, the “transcriptional activation domain activity” value was 73200.
In the case of “YEASNHPEFDLNADVGLVIQVLEQTHSHTPIKLCSLIVKLQVVSGFLSYLESD”, the “transcriptional activation domain activity” value is reported as 32800.
In the case of “YECALGIYSCVSFFVGVFYYIFIIFLSPIIFILLIILPLRISFVLCMAILLFG”, the “transcriptional activation domain activity” value is reported as 28600.
In the case of “YEHSFEIWLACTVVFPGAGNIGFTLLEYRLGHRSLASSFFENITWIPFFFFFF”, the “transcriptional activation domain activity” value is reported as 53900.
With “YEIKRRLQVCRAVLDEHINPYEFKHHTVYREALLKLMYFHCVISLRLVLSWTD” the “transcriptional activation domain activity” value was 65300.
In the case of “YETRPHAHVQEAVLTNRLTSAALYNPGRIAVLPLVCVWRDERTVVVFVHLVLT”, the “transcriptional activation domain activity” value is reported as 21400.
With “YFEIAGLTFFFYWYFYLLVGGIDCAWNKFVYVMVSHMSTMIVHVQITLSHFAM” the “transcriptional activation domain activity” value was 32700.
In the case of “YFILFPFHHFLSPSLHSAPAFWCTLLLFTYVLVFFFGTLYHMVMFCFVCLFIC”, the “transcriptional activation domain activity” value is reported as 94500.
With “YFLAKMLLVWIVLALQTCEVSFSFVDTEHAYRGGVLRFVETLVKWAMEQNMSH” the “transcriptional activation domain activity” value was 45400.
“YFLGIFMYFLYGESVIYYFKHVLLVDRILLPLATHHRFISFMLYLIGFVFFVG” was tested, and the “transcriptional activation domain activity” value was 65800.
